Source: PMC10199020 (Nature Communications, 2023)
Where “and” joins values, the source holds several entries; their conditions need not be identical. Equal values may be shown once. Entries after “also recorded” stand apart in the source; their conditions may differ. Blank lines part the entries; values can stand above or below the substance they belong to.

Columns and labels:
[1] = tested on: STAT3 phosphorylation (Tyr705), IL23R + IL12Rβ1; assay: Phospho-STAT3 AlphaLISA Surefire Ultra assay, wildtype IL23R; type: cell-based, human; details: for Individual experimental means, phospho-STAT3 signal (Figure 6 panel b): IL-23 (5nM)
Excerpt: (§1) To test this, we created untagged and NanoLuc tagged versions of IL23R with the C115Y mutation. […] Using an intra-receptor NanoBRET assay to measure the basal association of receptor subunits (as previously described in Lay et al.[24]), we discovered that the […] mutant still associated with a fluorescently labelled HaloTag (HT) tagged IL12Rβ1 construct although this was reduced by 50.1% from the level of association measured for wildtype IL23R, a reduction consistent with the protein’s reduced total and surface expression (Fig. 6e).
Data are mean ± SEM from five or six (untagged) or three (NanoLuc tagged) independent experiments conducted in triplicate. For the IL23R + IL12Rβ1 data set, one outlier (11108.7) was detected using the Grubbs test (with alpha = 0.001) and removed from the statistical analysis. Statistical significance of the C115Y mutation on the alphaLISA data was assessed using a 2-way ANOVA with Tukey’s multiple comparison test. ***p < 0.001. The p value for the comparison of NL tagged construct response was 0.0001 and the p value for the comparison of untagged receptor was 0.951. c Luminescence signal measured when IL12Rβ1 was expressed with either NL-IL23R or the C115Y mutant. Data are mean ± SEM generated from the mean luminescence values of seven (C115Y) or eight independent experiments performed in pentuplicate. d The proportion of luminescence from c that emanated from extracellular protein (as defined by the reduction in luminescence after treatment with 60 μM NanoLuc extracellular inhibitor). Data are mean ± SEM generated from the mean luminescence values of five (C115Y) or six independent experiments performed in triplicate. e The BRET ratio generated from HaloTag-618 labelled cells expressing NL tagged wildtype or C115Y IL23R with HT-IL12Rβ1 or unlabelled IL12Rβ1. […] Statistical significance of differences in mean values shown in c–e were measured using a 2-sided, non-paired t test with ** indicating a p value of <0.005 and *** indicating a p value of <0.0005. […]

[2] = tested on: STAT3 phosphorylation (Tyr705), C115Y IL23R + IL12Rβ1; assay: Phospho-STAT3 AlphaLISA Surefire Ultra assay, C115Y IL23R; type: cell-based, human; details: for Mean, phospho-STAT3 signal (Figure 6 panel b): 5 nM IL-23; for Individual experimental means, phospho-STAT3 signal (Figure 6 panel b): IL-23 (5nM)
Excerpt: as §1
Data are mean ± SEM from five or six (untagged) or three (NanoLuc tagged) independent experiments conducted in triplicate. For the IL23R + IL12Rβ1 data set, one outlier (11108.7) was detected using the Grubbs test (with alpha = 0.001) and removed from the statistical analysis. Statistical significance of the C115Y mutation on the alphaLISA data was assessed using a 2-way ANOVA with Tukey’s multiple comparison test. ***p < 0.001. The p value for the comparison of NL tagged construct response was 0.0001 and the p value for the comparison of untagged receptor was 0.951. c Luminescence signal measured when IL12Rβ1 was expressed with either NL-IL23R or the C115Y mutant. Data are mean ± SEM generated from the mean luminescence values of seven (C115Y) or eight independent experiments performed in pentuplicate. d The proportion of luminescence from c that emanated from extracellular protein (as defined by the reduction in luminescence after treatment with 60 μM NanoLuc extracellular inhibitor). Data are mean ± SEM generated from the mean luminescence values of five (C115Y) or six independent experiments performed in triplicate. e The BRET ratio generated from HaloTag-618 labelled cells expressing NL tagged wildtype or C115Y IL23R with HT-IL12Rβ1 or unlabelled IL12Rβ1. Data are mean ± SEM generated from the mean BRET values of three independent experiments performed in pentuplicate. Statistical significance of differences in mean values shown in c–e were measured using a 2-sided, non-paired t test with ** indicating a p value of <0.005 and *** indicating a p value of <0.0005. The p values for the results shown in c, d and e were p = 0.148, 0.0005 and 0.0013 respectively. Source data are provided as a Source Data file.
Phosphorylation of STAT3 was measured using an AlphaLISA Surefire Ultra assay as previously described. Briefly, transfected HEK293T cells were plated into a poly-D-lysine coated 96 well tissue culture microplate and then incubated overnight. The following day media was replaced with serum free DMEM and the cells incubated for 3 h. […] An AlphaLISA SureFire Ultra assay kit (Perkin Elmer #ALSU-PST3) was then used to measure STAT3 phosphorylation at residue Tyr705. Assays were performed according to the manufacturers’ instructions.

[3] = target: T1, NL-IL23R and IL12Rβ1 (IL-23 receptor) on HEK293T cells (Homo sapiens, UniProt P42701+Q5VWK5); assay: IL23-TMR NanoBRET competition assay; type: binding; design: Inhibition of IL23-TMR binding (Mean): unit not given here; details: for Inhibition of IL23-TMR binding (Mean): 300 pM IL23-TMR
T1 construct: expressed in transfected cells; host or cells: HEK293T (ATCC CRL-3216), transient transfection
T1 sequence (Q5VWK5 24-629, other chains not shown): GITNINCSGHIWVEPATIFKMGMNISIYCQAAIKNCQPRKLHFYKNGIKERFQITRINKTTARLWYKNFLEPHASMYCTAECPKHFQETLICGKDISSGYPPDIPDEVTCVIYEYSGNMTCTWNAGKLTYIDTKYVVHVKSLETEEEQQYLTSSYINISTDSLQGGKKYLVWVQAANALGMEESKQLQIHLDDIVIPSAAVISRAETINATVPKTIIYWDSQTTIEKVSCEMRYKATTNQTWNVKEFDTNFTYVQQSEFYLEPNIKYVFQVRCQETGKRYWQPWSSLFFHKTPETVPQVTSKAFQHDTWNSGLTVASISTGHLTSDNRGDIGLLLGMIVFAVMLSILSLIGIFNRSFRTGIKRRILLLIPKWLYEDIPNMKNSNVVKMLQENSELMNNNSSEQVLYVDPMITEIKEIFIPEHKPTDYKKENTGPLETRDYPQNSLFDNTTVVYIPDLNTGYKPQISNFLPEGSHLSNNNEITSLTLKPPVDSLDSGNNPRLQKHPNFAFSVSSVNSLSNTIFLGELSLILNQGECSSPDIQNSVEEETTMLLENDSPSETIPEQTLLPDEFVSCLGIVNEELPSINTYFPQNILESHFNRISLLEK
Procedure: Schematic created with Biorender.com. IL23R is shown in orange, IL12Rβ1 in purple, IL23p19 in blue, IL12p40 in green and the presence of a TAMRA fluorophore by a pink star. […] In b and c, data are mean ± SEM from 5 independent experiments conducted in either duplicate or triplicate. Details on absolute number of data points included for each concentration are provided in the associated Source Data file.
(§2) Transient transfections for experiments outlined in Fig. 6 were conducted by seeding 100 μL of 2 × 10^5 cells/ml concentrated HEK293T cells into poly-D-lysine (PDL) coated white 96 well clear bottom assay microplates (Greiner) and incubating overnight. The following day transfection mixes were made up that contained a 4:1 ratio of IL23R to IL12Rβ1 constructs to a total concentration of 100 ng per well with a 0.3 μL per well of FuGENE HD transfection reagent (Promega) in OptiMEM (Gibco). These mixtures were incubated for 10 min before being added to the plate at 5 μL per well. The cells were then incubated overnight to allow expression. For all other experiments 2 mL containing 4 × 10^5 cells were seeded into 6 well plates and incubated 5 h before being transiently transfected with 100 μL per well of a transfection mix containing 2 μg of DNA and 6 μL of FuGENE HD. These cells were then incubated overnight before being re-suspended the following day and seeded into PDL coated white assay microplates at 100 μL containing 3 × 10^4 transfected cells. Cells were then incubated overnight before the experiment. Estimates of total expression levels for the different NL-constructs were made by comparing the luminescence levels achieved to that of a NanoLuciferase standard curve measured under the same conditions (Supplementary Fig. 1).
Media was removed from white 96-well microplates containing transfected cells and replaced with fluoroprobe in the presence or absence of antagonist in 50 μL Hanks Balanced Salt Solution (HBSS) with 1 mg/mL BSA (Merck).
(§3) Antagonist competition data were fit with the equation:4 Y=Bmin+Bmax−Bmin/1+10^(LogXC50−[A])C Where ‘Bmax’ is the maximum BRET signal, ‘Bmin’ is the minimum BRET signal, ‘LogXC50’ is the log of the 50% inhibiting concentration of antagonist, ‘[A]’ is the concentration of antagonist and ‘C’ is the Hill slope.

[4] = target: T1, NL-IL23R and IL12Rβ1 (IL-23 receptor) on HEK293T cells; assay: P630-TMR NanoBRET competition assay; type: binding; details: for Displacement of 75 nM P630-TMR (Mean): Fig. 5a
Procedure: as §2
Media was removed from white 96-well microplates containing transfected cells and replaced with fluoroprobe in the presence or absence of antagonist in 50 μL Hanks Balanced Salt Solution (HBSS) with 1 mg/mL BSA (Merck). After a 1-hour incubation at 37 °C without CO2, 5 μL of HBSS containing 77 μM furimizine was added to each well (final concentration 7 μM), the plate incubated for 5-minutes and the BRET signal measured using a PheraStar FS plate reader (BMG Labtech; data acquisition software version 5.41; MARS analysis software version 3.32) with a 450 ± 30 nm and >550 nm long pass filters.
as §3

Substance: IL-23: heterodimeric cytokine, disulphide linked complex of IL12p40 and IL23p19
Mean, phospho-STAT3 signal (Figure 6 panel b) ([1]; 5 nM IL-23, transfection NL-IL23R + IL12Rβ1, N 3): 5562.78
Individual experimental means, phospho-STAT3 signal (Figure 6 panel b) ([1]; transfection IL23R + IL12Rβ1): 2394 and 1760.67 and 1431.33 and 2064.67 and 2014
Individual experimental means, phospho-STAT3 signal (Figure 6 panel b) ([1]; transfection NL-IL23R + IL12Rβ1): 2330.67 and 6586.67 and 7771
Mean, phospho-STAT3 signal (Figure 6 panel b) ([2]; transfection IL23R (C115Y) + IL12Rβ1, N 6): 1388.06
Mean, phospho-STAT3 signal (Figure 6 panel b) ([2]; transfection NL-IL23R (C115Y) + IL12Rβ1, N 3): 1262.44
Individual experimental means, phospho-STAT3 signal (Figure 6 panel b) ([2]; transfection IL23R (C115Y) + IL12Rβ1): 1279.33 and 1494.67 and 1589.67 and 1247.67 and 1140 and 1577
Individual experimental means, phospho-STAT3 signal (Figure 6 panel b) ([2]; transfection NL-IL23R (C115Y) + IL12Rβ1): 760 and 1260.33 and 1767

Inhibition of IL23-TMR binding (Mean) ([3]; [TEEEQQLY] -4.56864 logM): 13.433
Inhibition of IL23-TMR binding (Mean) ([3]; [TEEEQQLY] -5.04576 logM): 6.927
Inhibition of IL23-TMR binding (Mean) ([3]; [TEEEQQLY] -5.52288 logM): 9.9603
Inhibition of IL23-TMR binding (Mean) ([3]; [TEEEQQLY] -6 logM): 11.7979
Inhibition of IL23-TMR binding (Mean) ([3]; [TEEEQQLY] -6.47712 logM): 6.708
Inhibition of IL23-TMR binding (Mean) ([3]; [TEEEQQLY] -6.95424 logM): 2.6729
Inhibition of IL23-TMR binding (Mean) ([3]; [TEEEQQLY] -7.43136 logM): 2.475
Inhibition of IL23-TMR binding (Mean) ([3]; [TEEEQQLY] -7.90849 logM): 7.532
Displacement of 75 nM P630-TMR (Mean) ([4]; [TEEEQQLY] -4.09691 logM): -0.7672
Displacement of 75 nM P630-TMR (Mean) ([4]; [TEEEQQLY] -4.79588 logM): 3.824
Displacement of 75 nM P630-TMR (Mean) ([4]; [TEEEQQLY] -5.49485 logM): 1.157
Displacement of 75 nM P630-TMR (Mean) ([4]; [TEEEQQLY] -6.19382 logM): -2.412
Displacement of 75 nM P630-TMR (Mean) ([4]; [TEEEQQLY] -6.89279 logM): -1.937
Displacement of 75 nM P630-TMR (Mean) ([4]; [TEEEQQLY] -7.59176 logM): -4.432
Displacement of 75 nM P630-TMR (Mean) ([4]; [TEEEQQLY] -8.29073 logM): -0.4835
Displacement of 75 nM P630-TMR (Mean) ([4]; [TEEEQQLY] -8.9897 logM): -1.857
Substance: TEEEQQLY [octapeptide reported to be a negative allosteric modulator (NAM) of the IL-23 receptor]
Displacement of IL23-TMR ([3]; NL-IL23R and IL12Rβ1): not to displace IL23-TMR; also recorded: Did not displace labelled probe
Displacement of P630-TMR ([4]; NL-IL23R and IL12Rβ1): did not displace P630-TMR; also recorded: Did not displace labelled probe
